Reference: the supplement of paper PMC9876800

Tested on: peptide library, one residue held at a place counted from the S/T acceptor
Experiment: relative phosphorylation of the sub-library (ratio to the mean residue at this position); higher = residue favoured
How it was run: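 Each biotinylated degenerate peptide sub-library fixed one residue at one position around a central Ser/Thr and was incubated with a purified recombinant kinase, a human or orthologue construct, in 384-well plates. The 90 min reactions, under kinase-specific conditions, contained 50 μM peptide and 50 μM ATP spiked with γ-32P-ATP. Phosphorylation was read by phosphorimaging spots on streptavidin membranes and quantifying them by densitometry. Relative sub-library phosphorylation expresses each value as a ratio to the mean residue at that position.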

NEK5, construct: aa1-508, human, sequence (Q6P3R8 1-508, looked up): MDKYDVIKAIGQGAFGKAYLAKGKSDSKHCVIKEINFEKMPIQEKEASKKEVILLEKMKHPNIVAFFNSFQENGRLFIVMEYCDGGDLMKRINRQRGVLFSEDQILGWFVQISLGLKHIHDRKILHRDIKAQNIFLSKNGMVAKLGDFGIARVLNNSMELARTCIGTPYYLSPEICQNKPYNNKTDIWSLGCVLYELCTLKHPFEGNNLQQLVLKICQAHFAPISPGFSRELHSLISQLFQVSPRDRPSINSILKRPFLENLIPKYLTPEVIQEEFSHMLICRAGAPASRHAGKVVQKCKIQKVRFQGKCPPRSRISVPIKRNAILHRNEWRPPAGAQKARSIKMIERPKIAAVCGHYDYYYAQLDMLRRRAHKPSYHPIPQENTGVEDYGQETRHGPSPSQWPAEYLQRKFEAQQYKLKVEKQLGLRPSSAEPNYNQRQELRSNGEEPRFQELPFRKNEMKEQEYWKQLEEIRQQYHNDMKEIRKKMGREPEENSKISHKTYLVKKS
NIM1K, construct: Full length, human, sequence (Q8IY84 whole entry, looked up): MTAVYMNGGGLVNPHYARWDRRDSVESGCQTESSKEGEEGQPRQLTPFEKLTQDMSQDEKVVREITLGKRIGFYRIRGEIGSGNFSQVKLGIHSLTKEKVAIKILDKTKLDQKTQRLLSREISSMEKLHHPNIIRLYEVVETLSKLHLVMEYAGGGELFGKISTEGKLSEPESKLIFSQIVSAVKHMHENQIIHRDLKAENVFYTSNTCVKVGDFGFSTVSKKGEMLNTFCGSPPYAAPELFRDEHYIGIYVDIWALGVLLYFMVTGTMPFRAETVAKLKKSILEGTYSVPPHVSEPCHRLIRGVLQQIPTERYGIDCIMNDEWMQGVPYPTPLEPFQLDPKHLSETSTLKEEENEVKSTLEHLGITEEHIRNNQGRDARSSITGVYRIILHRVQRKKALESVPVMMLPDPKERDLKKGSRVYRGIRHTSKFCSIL
PDK1, construct: Full length, human, sequence (Q15118 whole entry, looked up): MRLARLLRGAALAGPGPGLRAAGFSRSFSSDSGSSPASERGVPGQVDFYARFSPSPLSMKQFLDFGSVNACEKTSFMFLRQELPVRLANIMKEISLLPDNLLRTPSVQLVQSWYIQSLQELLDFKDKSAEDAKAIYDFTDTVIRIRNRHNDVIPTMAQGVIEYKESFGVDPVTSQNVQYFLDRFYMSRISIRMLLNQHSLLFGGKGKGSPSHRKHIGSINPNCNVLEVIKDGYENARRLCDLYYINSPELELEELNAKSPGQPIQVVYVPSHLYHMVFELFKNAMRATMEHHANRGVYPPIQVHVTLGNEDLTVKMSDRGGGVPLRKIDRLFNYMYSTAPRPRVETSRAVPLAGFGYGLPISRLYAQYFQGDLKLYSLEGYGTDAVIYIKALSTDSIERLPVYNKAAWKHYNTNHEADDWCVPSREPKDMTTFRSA

NEK5, construct: aa1-508, human (from UniProt Q6P3R8)
relative phosphorylation
Conditions | at +1 | at +2 | at +3 | at +4 | at -1 | at -2 | at -3 | at -4 | at -5
A fixed | 1.01 | 0.985 | 0.773 | 0.99 | 1.04 | 1.3 | 1.01 | 1.05 | 1.21
D fixed | 0.278 | 0.417 | 0.524 | 0.792 | 0.791 | 1.17 | 0.548 | 1.14 | 1.18
E fixed | 0.295 | 0.352 | 0.418 | 0.76 | 0.848 | 1.18 | 0.597 | 1.08 | 0.891
F fixed | 1.25 | 0.913 | 1.34 | 0.978 | 0.649 | 0.857 | 1.71 | 0.997 | 1
G fixed | 1.39 | 0.768 | 1.02 | 1.29 | 0.889 | 1.65 | 1.5 | 1.32 | 1.45
H fixed | 0.864 | 1.15 | 1.07 | 1.2 | 1.1 | 1.17 | 1.07 | 1.05 | 1.02
I fixed | 0.943 | 0.752 | 0.978 | 0.639 | 0.403 | 0.475 | 0.308 | 0.616 | 0.532
K fixed | 1.04 | 1.74 | 0.986 | 1.26 | 1.74 | 0.692 | 0.927 | 1.11 | 1.06
L fixed | 1.06 | 0.885 | 1.33 | 0.946 | 1.08 | 1.08 | 1.54 | 0.803 | 0.882
M fixed | 1.82 | 1.1 | 1.15 | 0.968 | 1.16 | 1.18 | 1.5 | 1.06 | 0.969
N fixed | 1.01 | 1.14 | 1.12 | 1.13 | 1.35 | 1.48 | 0.849 | 1.12 | 1.15
P fixed | 0.238 | 0.735 | 0.987 | 1.31 | 0.504 | 0.692 | 1.35 | 1.19 | 1.39
Q fixed | 1.61 | 1.01 | 0.868 | 1.05 | 1.31 | 0.958 | 0.729 | 0.869 | 0.844
R fixed | 1.36 | 2.28 | 1.26 | 1 | 1.78 | 0.826 | 0.798 | 0.994 | 1.09
V fixed | 0.902 | 0.846 | 0.812 | 0.701 | 0.624 | 0.482 | 0.318 | 0.531 | 0.655
W fixed | 1 | 0.873 | 1.29 | 1.07 | 0.643 | 0.945 | 1.22 | 1.25 | 0.896
Y fixed | 0.933 | 1.05 | 1.07 | 0.914 | 1.08 | 0.846 | 1.03 | 0.826 | 0.771
pThr fixed | 0.498 | 0.581 | 0.612 | 0.602 | 0.407 | 0.745 | 0.844 | 1 | 1.2
pTyr fixed | 0.429 | 0.401 | 0.715 | 0.562 | 0.879 | 1.12 | 1.01 | 1.01 | 1.15

NIM1K, construct: Full length, human (from UniProt Q8IY84)
relative phosphorylation
Conditions | at +1 | at +2 | at +3 | at +4 | at -1 | at -2 | at -3 | at -4 | at -5
A fixed | 1.02 | 1.1 | 0.686 | 0.823 | 1.14 | 1.35 | 0.839 | 1.14 | 1.43
D fixed | 0.328 | 0.286 | 1.08 | 0.716 | 0.362 | 0.331 | 0.475 | 0.831 | 0.765
E fixed | 0.455 | 0.311 | 0.495 | 0.844 | 0.331 | 0.307 | 0.502 | 0.762 | 0.602
F fixed | 1.17 | 1.55 | 1.46 | 0.97 | 0.571 | 1.7 | 0.769 | 0.709 | 0.63
G fixed | 0.75 | 0.407 | 0.548 | 0.799 | 3.74 | 1.27 | 0.883 | 1.33 | 1.12
H fixed | 0.924 | 0.848 | 1.15 | 0.801 | 0.966 | 1.15 | 1.06 | 1.06 | 1.26
I fixed | 0.801 | 1.32 | 0.626 | 1.37 | 0.503 | 0.705 | 0.681 | 0.749 | 0.778
K fixed | 0.686 | 0.545 | 0.552 | 1.12 | 1.37 | 1.03 | 1.21 | 1.57 | 1.73
L fixed | 0.975 | 1.52 | 1.15 | 1.98 | 0.818 | 0.932 | 0.84 | 0.958 | 0.869
M fixed | 1.83 | 1.3 | 0.82 | 1.31 | 0.926 | 0.997 | 0.966 | 0.956 | 0.781
N fixed | 0.722 | 0.496 | 1.12 | 0.697 | 0.842 | 1.06 | 0.797 | 1.25 | 1.2
P fixed | 0.376 | 0.51 | 0.404 | 0.722 | 0.76 | 0.361 | 0.823 | 0.87 | 0.852
Q fixed | 2.16 | 0.607 | 0.549 | 0.795 | 1.05 | 0.737 | 0.887 | 0.935 | 0.868
R fixed | 1.05 | 0.633 | 0.666 | 1.24 | 1.44 | 1.38 | 3.47 | 1.41 | 1.41
V fixed | 1.2 | 1.48 | 0.645 | 1.42 | 0.693 | 0.888 | 0.872 | 0.712 | 0.917
W fixed | 1.16 | 2.06 | 3.85 | 0.717 | 0.709 | 1.7 | 0.97 | 0.863 | 1.04
Y fixed | 1.39 | 2.04 | 1.19 | 0.686 | 0.775 | 1.1 | 0.957 | 0.884 | 0.758
pThr fixed | 0.564 | 0.357 | 0.387 | 0.81 | 0.341 | 0.522 | 0.655 | 0.711 | 0.72
pTyr fixed | 0.365 | 0.345 | 0.367 | 0.644 | 0.459 | 0.475 | 0.619 | 0.629 | 0.543

PDK1, construct: Full length, human (from UniProt Q15118)
relative phosphorylation
Conditions | at +1 | at +2 | at +3 | at +4 | at -1 | at -2 | at -3 | at -4 | at -5
A fixed | 0.64 | 0.794 | 0.777 | 0.904 | 1.25 | 0.94 | 0.972 | 0.989 | 0.951
D fixed | 0.63 | 1.03 | 1.5 | 1.01 | 1.58 | 0.752 | 0.799 | 0.88 | 0.943
E fixed | 0.568 | 0.888 | 1.1 | 0.856 | 0.681 | 0.7 | 0.677 | 0.818 | 0.881
F fixed | 1.18 | 1.15 | 1.64 | 1.17 | 1.04 | 1.26 | 1.28 | 1.18 | 1.24
G fixed | 0.641 | 1.71 | 1.08 | 1.05 | 1.11 | 1.42 | 0.928 | 1.14 | 1.12
H fixed | 0.804 | 1.09 | 0.87 | 1.06 | 1.25 | 1.26 | 1.08 | 0.957 | 1.1
I fixed | 2.06 | 0.767 | 0.932 | 1 | 0.793 | 0.852 | 1.1 | 0.962 | 0.945
K fixed | 0.624 | 0.808 | 0.622 | 0.794 | 0.655 | 0.704 | 0.77 | 0.832 | 0.824
L fixed | 2.3 | 0.889 | 0.883 | 0.884 | 0.924 | 1.02 | 1.07 | 0.982 | 1.05
M fixed | 1.34 | 0.989 | 1.02 | 1 | 0.976 | 1.08 | 1.12 | 1.19 | 1.1
N fixed | 0.625 | 0.935 | 0.809 | 1.02 | 1.29 | 0.787 | 0.867 | 0.878 | 0.981
P fixed | 0.607 | 0.902 | 1.1 | 1.08 | 0.864 | 0.799 | 0.912 | 1.02 | 0.722
Q fixed | 0.727 | 1.04 | 0.803 | 0.884 | 0.801 | 0.869 | 0.852 | 0.883 | 0.679
R fixed | 0.728 | 1.11 | 0.897 | 0.967 | 0.751 | 0.986 | 0.851 | 0.988 | 0.95
V fixed | 1.28 | 0.813 | 0.948 | 0.926 | 0.823 | 0.83 | 0.94 | 0.831 | 0.917
W fixed | 1.25 | 1.08 | 1.03 | 1.38 | 1.21 | 1.73 | 1.78 | 1.47 | 1.6
Y fixed | 1.18 | 1.15 | 1.64 | 1.17 | 1.04 | 1.26 | 1.28 | 1.18 | 1.24
pThr fixed | 0.538 | 0.662 | 0.863 | 0.876 | 0.572 | 0.524 | 0.666 | 0.846 | 0.933
pTyr fixed | 0.723 | 0.951 | 0.689 | 0.919 | 0.694 | 0.892 | 0.885 | 1.2 | 1.05

PRKCE, construct: Full length, human (from UniProt Q02156)
relative phosphorylation
Conditions | at +1 | at +2 | at +3 | at +4 | at -1 | at -2 | at -3 | at -4 | at -5
A fixed | 0.507 | 0.48 | 0.795 | 0.905 | 1.06 | 0.774 | 0.669 | 1.12 | 1.16
D fixed | 0.169 | 0.162 | 0.342 | 0.375 | 0.373 | 0.296 | 0.223 | 0.455 | 0.383
E fixed | 0.165 | 0.138 | 0.347 | 0.334 | 0.312 | 0.308 | 0.235 | 0.558 | 0.35
F fixed | 1.7 | 0.528 | 0.831 | 0.561 | 0.588 | 0.69 | 0.691 | 0.783 | 1.28
G fixed | 0.525 | 0.366 | 1.01 | 0.967 | 1.59 | 0.908 | 0.731 | 1.08 | 1.05
H fixed | 0.66 | 1.02 | 1.25 | 1.16 | 0.936 | 1.1 | 1.09 | 1.16 | 1.12
I fixed | 1.43 | 0.515 | 0.619 | 0.6 | 0.44 | 0.393 | 0.435 | 0.689 | 0.935
K fixed | 2.1 | 4.18 | 2.99 | 3.19 | 2.52 | 2.35 | 2.17 | 2.11 | 1.67
L fixed | 1.15 | 0.441 | 0.746 | 0.567 | 0.679 | 0.425 | 0.466 | 0.639 | 0.934
M fixed | 1.18 | 0.566 | 0.581 | 0.62 | 0.813 | 0.528 | 0.545 | 0.833 | 0.744
N fixed | 0.577 | 0.501 | 0.661 | 0.921 | 0.997 | 0.834 | 0.552 | 0.822 | 0.665
P fixed | 0.473 | 0.357 | 0.604 | 1.07 | 1.21 | 0.623 | 0.708 | 0.919 | 0.921
Q fixed | 1.01 | 0.543 | 0.7 | 0.931 | 0.949 | 0.957 | 0.64 | 0.894 | 0.753
R fixed | 2.4 | 4.74 | 3.01 | 2.59 | 2.49 | 4.46 | 5.89 | 2.3 | 1.93
V fixed | 1.32 | 0.537 | 0.67 | 0.634 | 0.611 | 0.529 | 0.413 | 0.808 | 0.757
W fixed | 0.717 | 0.516 | 0.891 | 0.961 | 0.471 | 1.12 | 0.613 | 1.02 | 1.39
Y fixed | 0.928 | 1.4 | 0.95 | 0.607 | 0.968 | 0.701 | 0.934 | 0.82 | 0.956
pThr fixed | 0.851 | 0.471 | 0.573 | 0.688 | 0.378 | 0.561 | 0.657 | 0.799 | 0.932
pTyr fixed | 0.505 | 0.525 | 0.731 | 0.569 | 0.528 | 0.535 | 0.678 | 0.625 | 0.989
